System: diabetic rats
Experiment: Insulin delivery through catheter and implanted pocket in diabetic rats, plasmatic glycaemia
Assay type: in vivo, rat
Procedure: Rapid Insulin was injected through a catheter linked to a pocket as disclosed in the examples of WO 2015/086550 (three layer, including one of non-woven polymer).
The pocket was implanted in the intraperitoneal cavity of rats.

Substance: insulin
- diffusion of insulin out of the device (inferred from glycaemia kinetics, pocket implanted intraperitoneally): instant diffusion
- plasmatic glycaemia (insulin injected through catheter linked to pocket implanted in the intraperitoneal cavity (FIG. 2, circles)): rapid decrease of plasmatic glycaemia
